The source of these data is paper PMC9203827.

The assay has as its target papain (UniProt P00784).
Sequence of UniProt P00784 (P00784 134-345): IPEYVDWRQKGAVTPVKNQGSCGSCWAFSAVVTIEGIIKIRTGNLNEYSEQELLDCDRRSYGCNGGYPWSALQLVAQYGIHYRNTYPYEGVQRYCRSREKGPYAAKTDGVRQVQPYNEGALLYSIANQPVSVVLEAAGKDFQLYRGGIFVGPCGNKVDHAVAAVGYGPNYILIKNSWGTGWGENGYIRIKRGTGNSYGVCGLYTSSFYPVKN

For “recombinant cystatin-B from the red piranha Pygocentrus nattereri (natural protein)”, the inhibition of papain proteolytic activity on azocasein (absorbance); rCYST-B 0-80 μg (text: μg/μL) pre-incubated with 10 μL papain (0.1 μg/μL) at 28°C for 30 min; inhibition rises from 30 μg/μL came out at 100%.
